This is an account of results in publication PMC7815789, “Degradation of complex arabinoxylans by human colonic Bacteroidetes” (Nature Communications, 2021).

This experiment deals with BACINT_01039-CE1 (carbohydrate esterase family 1, acetyl-xylan esterase) (Bacteroides intestinalis DSM 17393) (UniProt B3C975). The experiment can be described thus: crystal structure; seleno-methionine-labeled BACINT_01039-CE1, 20 mg/mL in 50 mM Tris, 150 mM NaCl pH 7.5; hanging drop; 10 mM ammonium sulfate, 80 mM sodium cacodylate pH 6.5, 21% PEG4000; two molecules in the asymmetric unit as a dimer.

A word on the stoichiometry N: it is a count of units in the complex or per binding partner. As to “BACINT_01039-CE1 (carbohydrate esterase family 1, acetyl-xylan esterase) (from UniProt B3C975 1-382) (enzyme)”, the stoichiometry N stood at 2.
